System: Nc1ncnc2c1ncn2[C@@H]1O[C@H](COP(=O)(O)OP(=O)(O)OP(=O)(O)O)[C@@H](O)[C@H]1O
Experiment: purified protein
Conditions: import direction, Mg-ATP varied, 65 µM cyanocobalamin, pH 7.5, 30 °C, 1 mM DTT

Substance: BacAMm (Mycobacterium marinum M)
- Km: 250 µM
